Measurements taken from patent US20110020346A1.
pKd: −log10 of the molar value.

Columns and labels:
[1] = molecular target: T1, murine VEGF (mVEGF) (mouse) (UniProt Q00731); test: method not stated, 25 C, unpublished results
T1 sequence (looked up): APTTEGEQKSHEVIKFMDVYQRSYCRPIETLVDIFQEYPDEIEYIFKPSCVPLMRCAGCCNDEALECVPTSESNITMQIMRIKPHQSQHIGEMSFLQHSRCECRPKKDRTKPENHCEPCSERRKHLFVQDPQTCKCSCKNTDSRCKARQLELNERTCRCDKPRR

mouse VEGF-A165 (mouse) = mouse VEGF-A165 (mouse) (UniProt Q00731); test: ELISA with purified Fab (direct on coated antigen or solution binding), 25 C

Sequence of Y0317 Fab (VH): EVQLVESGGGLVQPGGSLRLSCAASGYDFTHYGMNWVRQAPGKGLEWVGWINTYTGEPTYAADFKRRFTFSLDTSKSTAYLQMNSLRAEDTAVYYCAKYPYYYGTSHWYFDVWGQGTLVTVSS
Sequence of Y0317 Fab (VL): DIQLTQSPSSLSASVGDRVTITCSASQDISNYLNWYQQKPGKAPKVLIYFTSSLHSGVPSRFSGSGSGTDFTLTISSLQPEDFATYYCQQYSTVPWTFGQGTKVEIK

Substance	pKd [1]	value printed without a name (ELISA) (mouse VEGF-A165 (mouse)) [nM]
Y0317 Fab	6.52	–
G6 Fab	–	0.6
